The values that follow come from publication PMC5014551.

Sequences and labels used below:
B1: Bol3-Strep [S. cerevisiae] / Grx5 [S. cerevisiae (endogenous in yeast mitochondria)] (parent)
chain 1: MKLPQTMLRSISVKHVRWPRILTGSKLWYSTQMAMTPEEKMITDKLQQELEPEVCKVQDVSGGCGSMFAINITSKKFNGLSLIKQHQLVNRILRDDISRWHGLQLTTKKSTGKGPASS
chain 2: LSTEIRKAIEDAIESAPVVLFMKGTPEFPKCGFSRATIGLLGNQGVDPAKFAAYNVLEDPELREGIKEFSEWPTIPQLYVNKEFIGGCDVITSMARSGELADLLEEAQALVPEEEEETKDR
B2: Bol3-Strep [S. cerevisiae] / Sdh2 [S. cerevisiae (endogenous in yeast mitochondria)] (parent)
chain 1: B1 chain 1
chain 2: TATTAAATHTPRLKTFKVYRWNPDEPSAKPHLQSYQVDLNDCGPMVLDALLKIKDEQDSTLTFRRSCREGICGSCAMNIGGRNTLACICKIDQNESKQLKIYPLPHMFIVKDLVPDLTNFYQQYKSIQPYLQRSSFPKDGTEVLQSIEDRKKLDGLYECILCACCSTSCPSYWWNQEQYLGPAVLMQAYRWLIDSRDQATKTRKAMLNNSMSLYRCHTIMNCTRTCPKGLNPGLAIAEIKKSLAFA
B3: Bol3-Strep [S. cerevisiae] / Aco1 [S. cerevisiae (endogenous in yeast mitochondria)] (parent)
chain 1: B1 chain 1
chain 2: ATVSNLTRDSKVNQNLLEDHSFINYKQNVETLDIVRKRLNRPFTYAEKILYGHLDDPHGQDIQRGVSYLKLRPDRVACQDATAQMAILQFMSAGLPQVAKPVTVHCDHLIQAQVGGEKDLKRAIDLNKEVYDFLASATAKYNMGFWKPGSGIIHQIVLENYAFPGALIIGTDSHTPNAGGLGQLAIGVGGADAVDVMAGRPWELKAPKILGVKLTGKMNGWTSPKDIILKLAGITTVKGGTGKIVEYFGDGVDTFSATGMGTICNMGAEIGATTSVFPFNKSMIEYLEATGRGKIADFAKLYHKDLLSADKDAEYDEVVEIDLNTLEPYINGPFTPDLATPVSKMKEVAVANNWPLDVRVGLIGSCTNSSYEDMSRSASIVKDAAAHGLKSKTIFTVTPGSEQIRATIERDGQLETFKEFGGIVLANACGPCIGQWDRRDIKKGDKNTIVSSYNRNFTSRNDGNPQTHAFVASPELVTAFAIAGDLRFNPLTDKLKDKDGNEFMLKPPHGDGLPQRGYDAGENTYQAPPADRSTVEVKVSPTSDRLQLLKPFKPWDGKDAKDMPILIKAVGKTTTDHISMAGPWLKYRGHLENISNNYMIGAINAENKKANCVKNVYTGEYKGVPDTARDYRDQGIKWVVIGDENFGEGSSREHAALEPRFLGGFAIITKSFARIHETNLKKQGLLPLNFKNPADYDKINPDDRIDILGLAELAPGKPVTMRVHPKNGKPWDAVLTHTFNDEQIEWFKYGSALNKIKADEKK
B4: Bol1-Strep [S. cerevisiae] / Grx5 [S. cerevisiae (endogenous in yeast mitochondria)] (parent)
chain 1: MFKRAMSTDGPVARTILKRLECGFPDYKNFAFGLYNDSHKHKGHAGVQGNVSAETHFRIEMVSKKFEGLKLPQRHRMVYSLLQDEMAQANGIHALQLSLKTPQEYESKAK
chain 2: B1 chain 2
B5: Bol3-Strep [S. cerevisiae] / Aco2 [S. cerevisiae (endogenous in yeast mitochondria)] (parent)
chain 1: B1 chain 1
chain 2: ATHANMFPSVSKNFQTKVPPYAKLLTNLDKIKQITNNAPLTLAEKILYSHLCDPEESITSSDLSTIRGNKYLKLNPDRVAMQDASAQMALLQFMTTGLNQTSVPASIHCDHLIVGKDGETKDLPSSIATNQEVFDFLESCAKRYGIQFWGPGSGIIHQIVLENFSAPGLMMLGTDSHTPNAGGLGAIAIGVGGADAVDALTGTPWELKAPKILGVKLTGKLNGWSTPKDVITKLAGLLTVRGGTGYIVEYFGEGVSTLSCTGMATICNMGAEIGATTSTFPYQEAHKRYLQATNRAEVAEAADVALNKFNFLRADKDAQYDKVIEIDLSAIEPHVNGPFTPDLSTPISQYAEKSLKENWPQKVSAGLIGSCTNSSYQDMSRVVDLVKQASKAGLKPRIPFFVTPGSEQIRATLERDGIIDIFQENGAKVLANACGPCIGQWNREDVSKTSKETNTIFTSFNRNFRARNDGNRNTMNFLTSPEIVTAMSYSGDAQFNPLTDSIKLPNGKDFKFQPPKGDELPKRGFEHGRDKFYPEMDPKPDSNVEIKVDPNSDRLQLLEPFKPWNGKELKTNVLLKVEGKCTTDHISAAGVWLKYKGHLENISYNTLIGAQNKETGEVNKAYDLDGTEYDIPGLMMKWKSDGRPWTVIAEHNYGEGSAREHAALSPRFLGGEILLVKSFARIHETNLKKQGVLPLTFANESDYDKISSGDVLETLNLVDMIAKDGNNGGEIDVKITKPNGESFTIKAKHTMSKDQIDFFKAGSAINYIGNIRRNE
B6: Bol3-Strep [S. cerevisiae] / Lip5 [S. cerevisiae (endogenous in yeast mitochondria)] (parent)
chain 1: B1 chain 1
chain 2: SSTIRCGTSATRPIRSNALNTDSDNASVRVPVGNSTEVENATSQLTGTSGKRRKGNRKRITEFKDALNLGPSFADFVSGKASKMILDPLEKARQNTEEAKKLPRWLKVPIPKGTNYHKLKGDVKELGLSTVCEEARCPNIGECWGGKDKSKATATIMLLGDTCTRGCRFCSVKTNRTPSKPDPMEPENTAEAIKRWGLGYVVLTTVDRDDLVDGGANHLAETVRKIKQKAPNTLVETLSGDFRGDLKMVDIMAQCGLDVYAHNLETVESLTPHVRDRRATYRQSLSVLERAKATVPSLITKTSIMLGLGETDEQITQTLKDLRNIQCDVVTFGQYMRPTKRHMKVVEYVKPEKFDYWKERALEMGFLYCASGPLVRSSYKAGEAFIENVLKKRNMK
B7: Bol3-Strep [S. cerevisiae] / Bio2 [S. cerevisiae (endogenous in yeast mitochondria)] (parent)
chain 1: B1 chain 1
chain 2: TKYATNAAVKSTTASSEASTLGALQYALSLDEPSHSWTKSQLKEIYHTPLLELTHAAQLQHRKWHDPTKVQLCTLMNIKSGGCSEDCKYCAQSSRNDTGLKAEKMVKVDEVIKEAEEAKRNGSTRFCLGAAWRDMKGRKSAMKRIQEMVTKVNDMGLETCVTLGMVDQDQAKQLKDAGLTAYNHNIDTSREHYSKVITTRTYDDRLQTIKNVQESGIKACTGGILGLGESEDDHIGFIYTLSNMSPHPESLPINRLVAIKGTPMAEELADPKSKKLQFDEILRTIATARIVMPKAIIRLAAGRYTMKETEQFVCFMAGCNSIFTGKKMLTTMCNGWDEDKAMLAKWGLQPMEAFKYDRS
B8: Bol3-Strep [S. cerevisiae] / Lys4 [S. cerevisiae (endogenous in yeast mitochondria)] (parent)
chain 1: B1 chain 1
chain 2: LKGQNLTEKIVQSYAVNLPEGKVVHSGDYVSIKPAHCMSHDNSWPVALKFMGLGATKIKNPSQIVTTLDHDIQNKSEKNLTKYKNIENFAKKHHIDHYPAGRGIGHQIMIEEGYAFPLNMTVASDSHSNTYGGLGSLGTPIVRTDAAAIWATGQTWWQIPPVAQVELKGQLPQGVSGKDIIVALCGLFNNDQVLNHAIEFTGDSLNALPIDHRLTIANMTTEWGALSGLFPVDKTLIDWYKNRLQKLGTNNHPRINPKTIRALEEKAKIPKADKDAHYAKKLIIDLATLTHYVSGPNSVKVSNTVQDLSQQDIKINKAYLVSCTNSRLSDLQSAADVVCPTGDLNKVNKVAPGVEFYVAAASSEIEADARKSGAWEKLLKAGCIPLPSGCGPCIGLGAGLLEPGEVGISATNRNFKGRMGSKDALAYLASPAVVAASAVLGKISSPAEVLSTSEIPFSGVKTEIIENPVVEEEVNAQTEAPKQSVEILEGFPREFSGELVLCDADNINTDGIYPGKYTYQDDVPKEKMAQVCMENYDAEFRTKVHPGDIVVSGFNFGTGSSREQAATALLAKGINLVVSGSFGNIFSRNSINNALLTLEIPALIKKLREKYQGAPKELTRRTGWFLKWDVADAKVVVTEGSLDGPVILEQKVGELGKNLQEIIVKGGLEGWVKSQL

The variants in one assay derive from B1. Nature of the assay: Strep-tag affinity purification with MS proteomics (spectral counts). As to conditions: parent: 21, read off a plot.
As to chain 1 H101C, the screen value was 18%.

A further assay covers variants of B2. Described as above. As to conditions: parent: 32, read off a plot.
Turning to chain 1 H101C, the screen value was 24%.

A further assay covers variants of B3. The description is as above. The conditions noted are these: parent: 10, read off a plot.
As to chain 1 H101C, the screen value worked out at 22%.

In a further assay the parent is B4. The assay is described as above. The conditions noted are these: parent: 47, read off a plot.
As for chain 1 H93C, the screen value turned out to be 5.9%.

Variants of B5 are the subject of another assay. Described as above. The conditions noted are these: parent: 0, read off a plot.
In the case of chain 1 H101C, the screen value came to 11%.

The next assay covers variants of B6. The description is as above. The conditions noted are these: parent: 10, read off a plot.
chain 1 H101C: the screen value stood at 10%.

A further assay covers variants of B7. The assay is described as above. The conditions noted are these: parent: 8, read off a plot.
Consider chain 1 H101C, for which the screen value stood at 31%.

Variants of B8 are the subject of a further assay. The assay is described as above. As to conditions: parent: 10, read off a plot.
For the variant chain 1 H101C, the screen value was found to be 30%.
